Measurements published in article PMC5030662.
Values joined by “and” are separate entries in the source; they are usually repeats but may differ in a detail not shown here. Equal entries are not always repeated.

Assays:
[1] = biological target: voltage-gated potassium channel KV1.6 (rat) (UniProt P17659)
[2] = biological target: KcsA-KV1.1 hybrid channel; assay: competitive binding on spheroplasts by confocal fluorescence microscopy
[3] = biological target: KcsA-KV1.3 hybrid channel; assay: as above

Sequence of UniProt P17659 (P17659 whole entry): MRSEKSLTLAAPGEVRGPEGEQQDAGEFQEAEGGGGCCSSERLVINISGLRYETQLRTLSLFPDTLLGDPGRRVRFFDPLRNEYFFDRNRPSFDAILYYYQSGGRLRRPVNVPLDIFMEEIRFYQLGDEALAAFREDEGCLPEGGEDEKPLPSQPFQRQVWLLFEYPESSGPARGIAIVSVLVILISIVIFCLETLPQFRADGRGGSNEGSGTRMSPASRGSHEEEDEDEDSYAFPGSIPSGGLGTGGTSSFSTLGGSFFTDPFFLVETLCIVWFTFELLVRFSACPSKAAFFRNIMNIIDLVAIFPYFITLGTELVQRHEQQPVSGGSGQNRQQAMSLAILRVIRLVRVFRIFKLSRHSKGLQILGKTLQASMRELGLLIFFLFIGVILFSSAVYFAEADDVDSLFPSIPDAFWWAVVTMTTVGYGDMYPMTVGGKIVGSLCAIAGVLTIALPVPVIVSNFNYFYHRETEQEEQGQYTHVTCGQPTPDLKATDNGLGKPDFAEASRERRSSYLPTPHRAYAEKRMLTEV

## AgTx2 (from UniProt P46111 1-38) (peptide)
[1]
  IC50 of inhibition of KV1.6 currents, two-electrode voltage clamp in Xenopus oocytes: 92000 pM

## OSK1 (from UniProt P55896 1-38) (peptide)
[1]
  IC50 of inhibition of KV1.6 currents, two-electrode voltage clamp in Xenopus oocytes: 71000 pM

B1: AgTx2 (peptide)
chain: GVPINVSCTGSPQCIKPCKDAGMRFGKCMNRKCHCTPK
[2]
  Kd: 49 pM and 67 pM
[3]
  Kd: 31 pM and 30 pM

B2: OSK1 (peptide)
chain: GVIINVKCKISRQCLEPCKKAGMRFGKCMNGKCHCTPK
[2]
  Kd: 1310 pM and 1420 pM
[3]
  Kd: 900 pM and 700 pM
